Test results from patent US12383631.

Experiments:
Test in all cases: cell-based or functional assay
[1] = biological target: Composition A (LZM-009 conjugated to IL-18 polypeptide of SEQ ID NO: 30) (human) (UniProt Q14116)
[2] = biological target: Composition B (Atezolizumab/Tecentriq conjugated to IL-18 polypeptide of SEQ ID NO: 30) (human) [IgG part: P0DOX5]
[3] = biological target: Composition D (LZM-009 conjugated to IL-18 polypeptide of SEQ ID NO: 31) (human) (UniProt Q14116)
[4] = biological target: IL-18 polypeptide C145 (human) (UniProt Q14116)
[5] = biological target: IL-18 polypeptide C146 (SEQ ID NO: 68) (human) (UniProt Q14116)
[6] = biological target: IL-18 polypeptide C148 (human) (UniProt Q14116)
[7] = biological target: IL-18 polypeptide C149 (human) (UniProt Q14116)
[8] = biological target: IL-18 polypeptide C152 (human) (UniProt Q14116)
[9] = biological target: IL-18 polypeptide C156 (human) (UniProt Q14116)
[10] = biological target: IL-18 polypeptide C159 (human) (UniProt Q14116)
[11] = biological target: IL-18 polypeptide C160 (human) (UniProt Q14116)
[12] = biological target: IL-18 polypeptide C163 (human) (UniProt Q14116)
[13] = biological target: IL-18 polypeptide C164 (human) (UniProt Q14116)
[14] = biological target: IL-18 polypeptide C167 (human) (UniProt Q14116)
[15] = biological target: IL-18 polypeptide of SEQ ID NO: 30 (E6K, V11I, C38A, K53A, T63A, C76A, C127A) (human) (UniProt Q14116)
[16] = biological target: IL-18 polypeptide of SEQ ID NO: 38 (E06K) (human) (UniProt Q14116)
[17] = biological target: IL-18 polypeptide of SEQ ID NO: 39 (E06K, K53A) (human) (UniProt Q14116)
[18] = biological target: IL-18 polypeptide of SEQ ID NO: 40 (E06K, S55A) (human) (UniProt Q14116)
[19] = biological target: IL-18 polypeptide of SEQ ID NO: 43 (E06K, K53A, S55A, Y01G) (human) (UniProt Q14116)
[20] = biological target: IL-18 polypeptide of SEQ ID NO: 46 (E06K, K53A, S55A, M51G) (human) (UniProt Q14116)
[21] = biological target: IL-18 polypeptide of SEQ ID NO: 5 (E6K, V11I, C38A, K53A, T63A, C68A, C76A, M86C, C127A) (human) (UniProt Q14116)
[22] = biological target: IL-18 polypeptide of SEQ ID NO: 50 (E06K, K53A, T63A) (human) (UniProt Q14116)
[23] = biological target: IL-18 polypeptide of SEQ ID NO: 52 (E06K, T63A) (human) (UniProt Q14116)
[24] = biological target: IL-18 polypeptide of SEQ ID NO: 53 (K53A, T63A) (human) (UniProt Q14116)
[25] = biological target: IL-18 polypeptide of SEQ ID NO: 54 (E06K, K53A, C38S, C68S, C76S, C127S, K70C) (human) (UniProt Q14116)
[26] = biological target: IL-18 polypeptide of SEQ ID NO: 57 (E6K, C38S, K53A) (human) (UniProt Q14116)

- IC50 of IL-18BPa on IFNγ secretion by NK92 cells [1]: 6.87 nM
- IC50 of IL-18BPa on IFNγ secretion by NK92 cells [2]: > 1000 nM
- IC50 of IL-18BPa on IFNγ secretion by NK92 cells [3]: 0.098 nM
- IC50 of IL-18BP on IFNγ secretion, NK92 cells [4]: 10.2 nM
- IC50 of IL-18BP on IFNγ secretion, NK92 cells [5]: 733 nM
- IC50 of IL-18BP on IFNγ secretion, NK92 cells [6]: 5.05 nM
- IC50 of IL-18BP on IFNγ secretion, NK92 cells [7]: 1.17 nM
- IC50 of IL-18BP on IFNγ secretion, NK92 cells [8]: 7.85 nM
- IC50 of IL-18BP on IFNγ secretion, NK92 cells [9]: 0.681 nM
- IC50 of IL-18BP on IFNγ secretion, NK92 cells [10]: 1.81 nM
- IC50 of IL-18BP on IFNγ secretion, NK92 cells [11]: 3.18 nM
- IC50 of IL-18BP on IFNγ secretion, NK92 cells [12]: 0.823 nM
- IC50 of IL-18BP on IFNγ secretion, NK92 cells [13]: 0.456 nM
- IC50 of IL-18BP on IFNγ secretion, NK92 cells [14]: 0.809 nM
- IC50 of IL-18BPa on IFNγ secretion by NK92 cells [15]: 488 nM
- IC50 of IL-18BP on IFNγ secretion, NK92 cells [16]: 7.79 nM
- IC50 of IL-18BP on IFNγ secretion, NK92 cells [17]: > 703 nM
- IC50 of IL-18BP on IFNγ secretion, NK92 cells [18]: 15 nM
- IC50 of IL-18BP on IFNγ secretion, NK92 cells [19]: 27.8 nM
- IC50 of IL-18BP on IFNγ secretion, NK92 cells [20]: 0.189 nM
- IC50 of IL-18BP on IFNγ secretion, NK92 cells [21]: 62.4 nM
- IC50 of IL-18BP on IFNγ secretion, NK92 cells [22]: > 1000 nM
- IC50 of IL-18BP on IFNγ secretion, NK92 cells [23]: 47.1 nM
- IC50 of IL-18BP on IFNγ secretion, NK92 cells [24]: 18.2 nM
- IC50 of IL-18BP on IFNγ secretion, NK92 cells [25]: 23.5 nM
- IC50 of IL-18BP on IFNγ secretion, NK92 cells [26]: 146 nM
Substance: Fc fused human IL-18 binding protein isoform a (IL-18BPa; R&D systems, Cat #119-BP) (from UniProt O95998 31-194) (Fc fusion)
